Measurements reported in patent US20230305005A1.

Experiments:
[1] = molecular target: RBD polypeptide (RBD portion of the SARS-CoV-2 S1 spike protein) (SARS-CoV-2) (UniProt P0DTC2); experiment: BLI, biotinylated antibody on streptavidin tip, RBD polypeptide in PBS; row for 10 nM RBD
[2] = molecular target: RBD polypeptide (RBD portion of the SARS-CoV-2 S1 spike protein) (SARS-CoV-2) (UniProt P0DTC2); experiment: BLI, biotinylated antibody on streptavidin tip, RBD polypeptide in PBS; row for 100 nM RBD

Substance: Ty1-Biotin (VHH)
- Kd [1]: 9.93 nM
- koff [1]: 0.00101 s⁻¹
- kon [1]: 102000 M⁻¹ s⁻¹
- Kd [2]: 9.93 nM
- koff [2]: 0.00101 s⁻¹
- kon [2]: 102000 M⁻¹ s⁻¹
